Assays:
[1] = pH screening of hGCase variants (activity assay, pH 3.5-8); assay type: biochemical; settings: for relative activity: pH 3.5, 20 mM citric acid buffer, highest activity = 100%
Protocol: (§1) For all further GCase characterization experiments including the activity assay, 20 μM substrate concentration, 30-40 min incubation time and protein concentrations ranging from 25-100 nM were set as final assay settings to ensure measurements in the linear range. The overall DMSO concentration within the assay was kept at 0.5% (v/v) or even below, since DMSO influences the fluorescent signal with higher concentrations (experimentally tested, data not shown; confirmed by (Urban et al., 2008). Therefore, GCase activity buffer+1% (v/v) DMSO was also used for dilutions (table 2.9). The plate reader SpectraMax i3 (Molecular Devices) including the analysis software SoftMax Pro 6.4 was used for all activity measurements within this work. The program settings were kept the same for all activity runs: kinetic run, measurement temperature: 37° C., PMT Gain: high; flashes per read: 6; read height: 0.73305 mm from plate.
A pH optimum screening was done to observe a possible shift in the pH spectrum of the new variants due to structural modification of the enzymes. Therefore, three different buffers were used, covering a pH range of pH 3.5 to 8. For the screening, buffer substances were chosen after the use for purification buffers. Therefore, following buffers were prepared: Citric acid buffer (20 mM, pH 3.5-5), MES buffer (20 mM, pH 6-6.5) and HEPES buffer (20 mM, pH 7-8). The final protein concentration used for this assay was 75 nM. The activity assay was done as described in section 2.3.5 (table 2.11), merely the buffer was varied.
A possible pH optimum shift due to structural modifications should be examined. Since the GCase enzyme originally occurs within the lysosome, its natural pH optimum is reported to be between pH 4.7-6.0 (Lieberman et al., 2007; Liou et al., 2006; Tan et al., 2014). This could change when including slight modifications in the structure of the molecule. Thus, the mutants were tested within a pH range of 3.5 to 8 for enzymatic activity.

[2] = molecular target: hGCase; test: Inhibition of hGCase using isofagomine (IFG), IC50 determination; assay type: biochemical, human; settings: reversible inhibitor isofagomine on the named hGCase variant; 25 nM protein, 10 min pre-incubation at RT, 20 μM res-β-glc
Protocol: IFG is a competitive, reversible inhibitor of hGCase, interacting with the active pocket of the enzyme (Powe et al., 2006).
To calculate the IC50, a concentration range of 0.002-100 μM IFG was tested. IFG was prepared with a stock concentration of 1 mM in DMSO. The final enzyme concentration was 25 nM. After adding the inhibitor to the enzyme, the solution was pre-incubated for 10 min at RT before adding the substrate (20 μM) for the activity measurement.
The evaluation and IC50 determination were done using GraphPad Prism7. hGCase activity with no inhibitor added was set to 100% relative enzyme activity. In case of evaluating the raw data via GraphPadPrism7, the applied inhibitor concentrations were first transformed to log 10×-values plottet on the x-axis. Further, the raw data measured with the activity assay in RFU was normalized to the highest activity value within one data set (equals 100%). 100% signal was defined as 10-12 μM IFG (=no inhibitor added). Data points were fitted and IC50 values were determined using log(inhibitor) vs. response-variable slope (four parameters) (GraphPadPrism7) following equation 9: […]
(§2) To determine whether the active binding site of an enzyme is compromised or altered, IC50 values were calculated for active site inhibitor and compared. In this work, the natural occurring GCase inhibitor isofagomine (IFG) and conditurol-β-epoxide (CBE) were used. IFG is known as a reversible inhibitor, interacting with the active site of the GCase enzyme, whereas CBE is an irreversible inhibitor of GCase (Powe et al., 2006). The IC50 of an enzyme is defined as the concentration of an inhibitor, where the response, in this case the enzyme activity, is reduced by half (Kalliokoski et al., 2013). Both assays were conducted as described in section 2.5.6. The inhibitor profiles of M53T/P55T using IFG and CBE as well as the IC50 profiles of all residual mutants combined are shown in FIG. 4.
(§3) The raw data was plotted by transforming the applied IFG/CBE concentration to a logarithmic scale (x-axis, FIG. 4) and by normalizing the activity signal with highest signal of each data set to 100% (defined with apparent inhibitor concentration of 10-12 μM, equal to no inhibitor). IC50 values were calculated using GraphPad Prism7 following equation 9.

[3] = molecular target: hGCase; test: Inhibition of hGCase using conditurol-β-epoxide (CBE), IC50 determination; assay type: biochemical, human; settings: irreversible inhibitor conditurol-β-epoxide on the named hGCase variant; 25 nM protein, 10 min pre-incubation, 20 μM res-β-glc
Protocol: CBE is an irreversible inhibitor of glucocerebrosidases which covalently binds to the active site of the enzyme (Liou et al., 2006).
A stock solution of 100 mM CBE in H2Oultrapure was prepared. For IC50 determination, CBE concentrations ranging from 0.04-2500 μM were tested. Again, the final enzyme concentration was 25 nM. After adding the inhibitor, the enzyme was pre-incubated for 10 min before initializing the activity measurement by adding the substrate (20 μM).
IC50 evaluations were done in the same manner as described for IFG (see section above). The IC50 calculations were done using GraphPad Prism7 following equation 9.
as §2, §3

[4] = Heat inactivation at 55° C., residual GCase activity of purified protein; assay type: physicochemical; settings: for residual activities after 5 and 10 min of incubation (in words): 55° C., compared to R495HS2; for residual GCase activity after heat inactivation: 55° C. waterbath, 50 nM protein, initial activity = 100%
Protocol: as §1
Another approach to test the mutants for thermal stability is the irreversible heat inactivation at 55° C. (Futami et al., 2017; Zale & Klibanov, 1986). As initial screening to select for most promising candidates, this thermal stability approach was chosen (section 3.1.1). For this, supernatant samples of each construct were taken from the 30 ml S2 cell cultures, respectively (section 2.2). The protein concentration was not adjusted. The samples were incubated for 40 min in total at 55° C. (PCR Cycler Mastercycler gradient, Eppendorf) using PCR plates (FrameStar®96 well skirted PCR plate, 4titude Ltd.). Samples were taken after 5, 7, 10, 15, 20, 30 and 40 min for residual activity measurements. The activity assay was performed as described in section 2.3.5. The initial activity of each mutant was set to 100% before heating. Residual activities were calculated in regard to the initial activity. Data points were fitted using the one phase decay fit by GraphPad Prism7 following equation 3: […]
For the heat inactivation experiment of purified protein (see section 3.3.3), hGCase protein samples were prepared with a final concentration of 50 nM, diluted in hGCase activity buffer, pH 6.0 (table 2.9) and incubated for 5 and 10 minutes in the waterbath (Julabo 5A, Julabo) at 55° C.
The second approach was aimed to test residual GCase activity after thermal inactivation at a fixed temperature. With this additional approach, the focus was set on activity-based changes with increased incubation time (Futami et al., 2017; Zale & Klibanov, 1986). Here, samples were incubated for 5 and 10 minutes in the waterbath at 55° C. Residual GCase activities were measured with the initial activity set to 100% (before heating). FIG. 2 depicts calculated residual activities for tested mutants after incubation.

Molecule | relative activity [1] | IC50 [2] | IC50 [3] | residual activities after 5 and 10 min of incubation (in words) [4] | shape of pH spectrum ([1]; pH 3.5-8) | residual GCase activity after heat inactivation ([4]; 5 min incubation) | residual GCase activity after heat inactivation ([4]; 10 min incubation) | activity at pH 8 ([1]; pH 8, 20 mM HEPES buffer)
R495HS2: hGCase based on the Cerezyme sequence (R495H) but produced in S2 cells, His8-tagged; Seq. Id. No. 1 (protein, listed as Homo sapiens, His8 tag) ARPCIPKSFGYSSVVCVCNATYCDSFDPPTFPALGTFSRYESTRSGRRMELSMGPIQANHTGTGLLLTLQPEQKFQKVKGFGGAMTDAAALNILALSPPAQNLLLKSYFSEEGIGYNIIRVPMASCDFSIRTYTYADTPDDFQLHNFSLPEEDTKLKIPLIHRALQLAQRPVSLLASPWTSPTWLKTNGAVNGKGSLKGQPGDIYHQTWARYFVKFLDAYAEHKLQFWAVTAENEPSAGLLSGYPFQCLGFTPEHQRDFIARDLGPTLANSTHHNVRLLMLDDQRLLLPHWAKVVLTDPEAAKYVHGIAVHWYLDFLAPAKATLGETHRLFPNTMLFASEACVGSKFWEQSVRLGSWDRGMQYSHSIITNLLYHVVGWTDWNLALNPEGGPNWVRNFVDSPIIVDITKDTFYKQPMFYHLGHFSKFIPEGSQRVGLVASQKNDLDAVALMHPDGSAVVVVLNRSSKDVPLTIKDPAVGFLETISPGYSIHTYLWHRQ | 80% | 17 nM | 55000 ± 3000 nM | – | – | – | – | –
K321N: Amicus single mutant hGCase R495H/K321N produced in S2 cells; Seq. Id. No. 2 (protein, listed as Homo sapiens, Amicus single mutant hGCase R495H/K321N produced in S2 cells; Id; No. 2) ARPCIPKSFGYSSVVCVCNATYCDSFDPPTFPALGTFSRYESTRSGRRMELSMGPIQANHTGTGLLLTLQPEQKFQKVKGFGGAMTDAAALNILALSPPAQNLLLKSYFSEEGIGYNIIRVPMASCDFSIRTYTYADTPDDFQLHNFSLPEEDTKLKIPLIHRALQLAQRPVSLLASPWTSPTWLKTNGAVNGKGSLKGQPGDIYHQTWARYFVKFLDAYAEHKLQFWAVTAENEPSAGLLSGYPFQCLGFTPEHQRDFIARDLGPTLANSTHHNVRLLMLDDQRLLLPHWAKVVLTDPEAAKYVHGIAVHWYLDFLAPANATLGETHRLFPNTMLFASEACVGSKFWEQSVRLGSWDRGMQYSHSIITNLLYHVVGWTDWNLALNPEGGPNWVRNFVDSPIIVDITKDTFYKQPMFYHLGHFSKFIPEGSQRVGLVASQKNDLDAVALMHPDGSAVVVVLNRSSKDVPLTIKDPAVGFLETISPGYSIHTYLWHRQ | – | 28 ± 3 nM | 28000 nM | significantly higher residual activities | – | – | – | –
K321N/H145L: Amicus double mutant hGCase R495H/K321N/H145L produced in S2 cells; Seq. Id. No. 3 (protein, listed as Homo sapiens, Amicus double mutant hGCase R495H/K321N/H145L produced in S2 cells; Id; No. 3) ARPCIPKSFGYSSVVCVCNATYCDSFDPPTFPALGTFSRYESTRSGRRMELSMGPIQANHTGTGLLLTLQPEQKFQKVKGFGGAMTDAAALNILALSPPAQNLLLKSYFSEEGIGYNIIRVPMASCDFSIRTYTYADTPDDFQLLNFSLPEEDTKLKIPLIHRALQLAQRPVSLLASPWTSPTWLKTNGAVNGKGSLKGQPGDIYHQTWARYFVKFLDAYAEHKLQFWAVTAENEPSAGLLSGYPFQCLGFTPEHQRDFIARDLGPTLANSTHHNVRLLMLDDQRLLLPHWAKVVLTDPEAAKYVHGIAVHWYLDFLAPANATLGETHRLFPNTMLFASEACVGSKFWEQSVRLGSWDRGMQYSHSIITNLLYHVVGWTDWNLALNPEGGPNWVRNFVDSPIIVDITKDTFYKQPMFYHLGHFSKFIPEGSQRVGLVASQKNDLDAVALMHPDGSAVVVVLNRSSKDVPLTIKDPAVGFLETISPGYSIHTYLWHRQ | – | 35 ± 11 nM | 35000 nM | significantly higher residual activities | more bell-shaped pH spectrum | – | – | –
I5N: recombinant human β-glucocerebrosidase variant R495H/I5N, S2 cells; Seq. Id. No. 4 (protein, listed as Homo sapiens, recombinant human β-glucocerebrosidase variant R495H/I5N, S2 cells; Id; No. 4) ARPCNPKSFGYSSVVCVCNATYCDSFDPPTFPALGTFSRYESTRSGRRMELSMGPIQANHTGTGLLLTLQPEQKFQKVKGFGGAMTDAAALNILALSPPAQNLLLKSYFSEEGIGYNIIRVPMASCDFSIRTYTYADTPDDFQLHNFSLPEEDTKLKIPLIHRALQLAQRPVSLLASPWTSPTWLKTNGAVNGKGSLKGQPGDIYHQTWARYFVKFLDAYAEHKLQFWAVTAENEPSAGLLSGYPFQCLGFTPEHQRDFIARDLGPTLANSTHHNVRLLMLDDQRLLLPHWAKVVLTDPEAAKYVHGIAVHWYLDFLAPAKATLGETHRLFPNTMLFASEACVGSKFWEQSVRLGSWDRGMQYSHSIITNLLYHVVGWTDWNLALNPEGGPNWVRNFVDSPIIVDITKDTFYKQPMFYHLGHFSKFIPEGSQRVGLVASQKNDLDAVALMHPDGSAVVVVLNRSSKDVPLTIKDPAVGFLETISPGYSIHTYLWHRQ | 75% | 26 ± 3 nM | – | – | – | 31% | 16% | completely inactive
